# Reference: patent US11306156
# What was measured:
# [1] = molecular target: D3H44 light chain Q124E_L135W_Q160E_T180E; assay: SMCA, LC-MS of 4 co-expressed chains; competing light chain m28
# [2] = molecular target: D3H44 light chain Q124E_Q160E_T180E; assay: SMCA, LC-MS of 4 co-expressed chains; competing light chain m31
# [3] = molecular target: D3H44 light chain Q124E_Q160E_T180E; assay: SMCA, LC-MS of 4 co-expressed chains; competing light chain m48
# [4] = molecular target: D3H44 light chain Q124E_L135W_Q160E_T180E; assay: SMCA, LC-MS; change vs wild-type bispecific; competing light chain m28
# [5] = molecular target: D3H44 light chain Q124E_Q160E_T180E; assay: SMCA, LC-MS; change vs wild-type bispecific; competing light chain m31
# [6] = molecular target: D3H44 light chain Q124E_Q160E_T180E; assay: SMCA, LC-MS; change vs wild-type bispecific; competing light chain m48
# [7] = molecular target: D3H44 light chain Q124E_L135W_Q160E_T180E; assay: SMCA: H1, H2, L1, L2 co-expressed in CHO-3E7, protein A, LC-MS; competitor light chain m32
# [8] = molecular target: D3H44 light chain Q124E_Q160E_T180E; assay: SMCA: H1, H2, L1, L2 co-expressed in CHO-3E7, protein A, LC-MS; competitor light chain m37
# [9] = molecular target: Cetuximab light chain F116C_Q124R_T178R; assay: SMCA, LC-MS; change vs wild-type bispecific; competing light chain m14
# [10] = molecular target: Cetuximab light chain F116C_Q124R_T178R; assay: SMCA: H1, H2, L1, L2 co-expressed in CHO-3E7, protein A purified, LC-MS; competing light chain m6; against wild-type bispecific
# [11] = molecular target: tissue factor (TF) antigen (UniProt P13726); assay: SPR as for KD; reference: wild-type D3H44 Fab; batch C (+)
# [12] = molecular target: tissue factor (TF) antigen (UniProt P13726); assay: SPR as for KD; reference: wild-type D3H44 Fab; batch C (+); Set # read as 9787
# [13] = molecular target: tissue factor (TF) antigen (UniProt P13726); assay: SPR, ProteOn XPR36; His-tagged Fab captured on anti-penta-His, TF injected; 1:1 fit; batch C (+)
# [14] = molecular target: tissue factor (TF) antigen (UniProt P13726); assay: SPR, ProteOn XPR36; His-tagged Fab captured on anti-penta-His, TF injected; 1:1 fit; batch C (+); Set # read as 9787
# [15] = molecular target: tissue factor (TF) antigen (UniProt P13726); assay: SPR (ProteOn), Fab captured via anti-penta-His, TF injected, 1:1 fit
# [16] = molecular target: tissue factor (TF) antigen (UniProt P13726); assay: SPR (ProteOn), Fab captured via anti-penta-His, TF injected, 1:1 fit; reference wild-type D3H44 Fab
# [17] = molecular target: tissue factor (TF) antigen (UniProt P13726); assay: SPR (ProteOn), Fab captured via anti-penta-His, TF injected, 1:1 fit; estimated (*) from a Fab differing only in L chain tag
# [18] = molecular target: tissue factor (TF) antigen (UniProt P13726); assay: SPR (ProteOn), Fab captured via anti-penta-His, TF injected, 1:1 fit; reference wild-type D3H44 Fab; estimated (*) from a Fab differing only in L chain tag
# [19] = molecular target: D3H44 light chain Q38E_Q124E_Q160E_T180E; assay: SMCA: H1, H2, L1, L2 co-expressed in CHO-3E7, protein A, LC-MS; competitor light chain m47
# [20] = molecular target: D3H44 light chain Q38E_Q124E_Q160E_T180E; assay: SMCA: H1, H2, L1, L2 co-expressed in CHO-3E7, protein A purified, LC-MS; competing light chain m12
# [21] = molecular target: D3H44 light chain Q38E_Q124E_Q160E_T180E; assay: SMCA: H1, H2, L1, L2 co-expressed in CHO-3E7, protein A purified, LC-MS; competing light chain m12; *** estimated change against a similar wild-type construct
# [22] = molecular target: Trastuzumab light chain Q38E_Q124E_Q160E_T180E; assay: SMCA: H1, H2, L1, L2 co-expressed in CHO-3E7, protein A purified, LC-MS; competing light chain m12
# [23] = molecular target: Trastuzumab light chain Q38E_Q124E_Q160E_T180E; assay: SMCA: H1, H2, L1, L2 co-expressed in CHO-3E7, protein A purified, LC-MS; competing light chain m14
# [24] = molecular target: Trastuzumab light chain Q38E_Q124E_Q160E_T180E; assay: SMCA: H1, H2, L1, L2 co-expressed in CHO-3E7, protein A purified, LC-MS; competing light chain m12; against wild-type bispecific
# [25] = molecular target: Trastuzumab light chain Q38E_Q124E_Q160E_T180E; assay: SMCA: H1, H2, L1, L2 co-expressed in CHO-3E7, protein A purified, LC-MS; competing light chain m14; against wild-type bispecific
# [26] = molecular target: D3H44 light chain F116C_Q124R_T178R; assay: SMCA, LC-MS of 4 co-expressed chains; competing light chain m32
# [27] = molecular target: D3H44 light chain F116C_Q124R_T178R; assay: SMCA, LC-MS; change vs wild-type bispecific; competing light chain m32
# [28] = molecular target: D3H44 light chain F116C_Q124R_T178R; assay: SMCA: 2 heavy + 2 light chains co-expressed, protein A, LC-MS; competing light chain m12
# [29] = molecular target: Trastuzumab light chain Q38R_Q124R_Q160K_T178R; assay: SMCA: H1, H2, L1, L2 co-expressed in CHO-3E7, protein A purified, LC-MS; competing light chain m16
# [30] = molecular target: Cetuximab light chain Q38E_Q124E_Q160E_T180E; assay: SMCA: H1, H2, L1, L2 co-expressed in CHO-3E7, protein A purified, LC-MS; competing light chain m14; against wild-type bispecific
# [31] = molecular target: Cetuximab light chain Q38R_Q124R_Q160K_T178R; assay: SMCA: H1, H2, L1, L2 co-expressed in CHO-3E7, protein A purified, LC-MS; competing light chain m18
# [32] = molecular target: Cetuximab light chain Q38R_Q124R_Q160K_T178R; assay: SMCA: H1, H2, L1, L2 co-expressed in CHO-3E7, protein A purified, LC-MS; competing light chain m18; against wild-type bispecific
# [33] = molecular target: Cetuximab light chain Q38R_Q124R_Q160K_T178R; assay: SMCA: H1, H2, L1, L2 co-expressed in CHO-3E7, protein A purified, LC-MS; competing light chain m10; *** estimated change against a similar wild-type construct
# [34] = molecular target: D3H44 light chain Q38R_Q124R_Q160K_T178R; assay: SMCA: 2 heavy + 2 light chains co-expressed, protein A, LC-MS; competing light chain m20
# [35] = molecular target: D3H44 light chain Q38R_Q124R_Q160K_T178R; assay: SMCA: H1, H2, L1, L2 co-expressed in CHO-3E7, protein A purified, LC-MS; competing light chain m16
# [36] = molecular target: D3H44 light chain Q38R_Q124R_Q160K_T178R; assay: SMCA: H1, H2, L1, L2 co-expressed in CHO-3E7, protein A purified, LC-MS; competing light chain m18
# [37] = molecular target: D3H44 light chain Q38R_Q124R_Q160K_T178R; assay: SMCA: H1, H2, L1, L2 co-expressed in CHO-3E7, protein A purified, LC-MS; competing light chain m16; against wild-type bispecific
# [38] = molecular target: D3H44 light chain Q38R_Q124R_Q160K_T178R; assay: SMCA: H1, H2, L1, L2 co-expressed in CHO-3E7, protein A purified, LC-MS; competing light chain m18; against wild-type bispecific
# [39] = molecular target: D3H44 light chain Q124E_V133E; assay: SMCA, LC-MS of 4 co-expressed chains; competing light chain m26
# [40] = molecular target: D3H44 light chain Q124E_V133E; assay: SMCA, LC-MS of 4 co-expressed chains; competing light chain m42
# [41] = molecular target: D3H44 light chain Q124E_V133E; assay: SMCA, LC-MS; change vs wild-type bispecific; competing light chain m42
# [42] = molecular target: D3H44 light chain Q124E_V133E; assay: SMCA, LC-MS; estimated change vs similar wild type (***); competing light chain m26
# [43] = molecular target: D3H44 light chain Q124E_V133E; assay: SMCA: 2 heavy + 2 light chains co-expressed, protein A, LC-MS; competing light chain m45
# [44] = molecular target: D3H44 light chain Q124E_V133E; assay: SMCA: LC-MS of protein A purified product after co-expression of H1, H2, L1, L2 in CHO-3E7; competing light chain m52
# [45] = molecular target: Cetuximab light chain Q124E_L135W_Q160E_T180E; assay: SMCA, LC-MS; change vs wild-type bispecific; competing light chain m12
# [46] = molecular target: Cetuximab light chain Q124E_Q160E_T180E; assay: SMCA, LC-MS; change vs wild-type bispecific; competing light chain m15
substance,measurement,setting,value
D3H44 heavy chain Q179K (from UniProt P0DOX5 2-448),% H1L1 Pairing (over all H1 species),[1],100%
same,% H1L1 Pairing (over all H1 species),[2],100%
same,% H1L1 Pairing (over all H1 species),[3],100%
same,Change in % H1L1 Pairing (over all H1 species) with respect to wild type,[4],38.1%
same,Change in % H1L1 Pairing (over all H1 species) with respect to wild type,[5],52.5%
same,Change in % H1L1 Pairing (over all H1 species) with respect to wild type,[6],62.7%
same,% H1L1 Pairing (over all H1 species),[7],100%
same,% H1L1 Pairing (over all H1 species),[8],100%
Cetuximab heavy chain A139C_L143E_K145T_Q179E,Change in % H2L2 Pairing (over all H2 species) with respect to wild type,[9],0%
same,Change in % H2L2 Pairing (over all H2 species) with respect to wild type,[10],3%
"D3H44 Fab heterodimer, H1L1 of LCCA Sets # 9794, 9796, 9797, 9792, 9789 and 9787 (H1 Q179K; L1 Q124E_T180E)","change in median KD compared to wild type, -(log(KD design)-log(KD wt))",[11],0.16
same,"change in median KD compared to wild type, -(log(KD design)-log(KD wt))",[12],0.16
same,Kd,[13],0.11 nM
same,Kd,[14],0.11 nM
"D3H44 Fab heterodimer (H1L1) of LCCA Sets # 9683, 9684: H1 L143E_K145T_Q179E, L1 T178R",Kd,[15],0.3 nM
same,"change in median KD compared to wild type, -(log(KD design)-log(KD wt))",[16],-0.28
same,Kd,[17],0.3 nM
same,"change in median KD compared to wild type, -(log(KD design)-log(KD wt))",[18],-0.28
D3H44 heavy chain Q39R_H172R_Q179K (from UniProt P0DOX5 2-448),% H1L1 Pairing (over all H1 species),[19],100%
same,% H1L1 Pairing (over all H1 species),[20],100%
same,Change in % H1L1 Pairing (over all H1 species) with respect to wild type,[21],43.3%
Trastuzumab heavy chain Q39R_H172R_Q179K (from UniProt P0DOX5 2-448),% H1L1 Pairing (over all H1 species),[22],100%
same,% H2L2 Pairing (over all H2 species),[23],100%
same,Change in % H1L1 Pairing (over all H1 species) with respect to wild type,[24],6%
same,Change in % H2L2 Pairing (over all H2 species) with respect to wild type,[25],7%
D3H44 heavy chain A139C_L143E_K145T_Q179E (from UniProt P0DOX5 2-448),% H1L1 Pairing (over all H1 species),[26],100%
same,Change in % H1L1 Pairing (over all H1 species) with respect to wild type,[27],38.1%
same,% H1L1 Pairing (over all H1 species),[28],100%
Trastuzumab heavy chain Q39E_L143E_K145T_Q179E (from UniProt P0DOX5 2-448),% H1L1 Pairing (over all H1 species),[29],100%
Cetuximab heavy chain Q39R_H172R_Q179K,Change in % H2L2 Pairing (over all H2 species) with respect to wild type,[30],0.6%
Cetuximab heavy chain Q39E_L143E_K145T_Q179E,% H2L2 Pairing (over all H2 species),[31],52.3%
same,Change in % H2L2 Pairing (over all H2 species) with respect to wild type,[32],22.7%
same,Change in % H2L2 Pairing (over all H2 species) with respect to wild type,[33],1.6%
D3H44 heavy chain Q39E_L143E_K145T_Q179E (from UniProt P0DOX5 2-448),% H1L1 Pairing (over all H1 species),[34],100%
same,% H1L1 Pairing (over all H1 species),[35],100%
same,% H1L1 Pairing (over all H1 species),[36],86.6%
same,Change in % H1L1 Pairing (over all H1 species) with respect to wild type,[37],38.1%
same,Change in % H1L1 Pairing (over all H1 species) with respect to wild type,[38],46%
D3H44 heavy chain L143R (from UniProt P0DOX5 2-448),% H1L1 Pairing (over all H1 species),[39],100%
same,% H1L1 Pairing (over all H1 species),[40],97.1%
same,Change in % H1L1 Pairing (over all H1 species) with respect to wild type,[41],59.8%
same,Change in % H1L1 Pairing (over all H1 species) with respect to wild type,[42],43.3%
same,% H1L1 Pairing (over all H1 species),[43],100%
same,% H1L1 Pairing (over all H1 species),[44],100%
Cetuximab heavy chain Q179K,Change in % H2L2 Pairing (over all H2 species) with respect to wild type,[45],1.7%
same,Change in % H2L2 Pairing (over all H2 species) with respect to wild type,[46],0%
